These results are taken from patent publication US11008403 (dated 2021).

The target in one assay is T1, cyno FcRn (cynomolgus, UniProt Q8SPV9).
T1 chain 1: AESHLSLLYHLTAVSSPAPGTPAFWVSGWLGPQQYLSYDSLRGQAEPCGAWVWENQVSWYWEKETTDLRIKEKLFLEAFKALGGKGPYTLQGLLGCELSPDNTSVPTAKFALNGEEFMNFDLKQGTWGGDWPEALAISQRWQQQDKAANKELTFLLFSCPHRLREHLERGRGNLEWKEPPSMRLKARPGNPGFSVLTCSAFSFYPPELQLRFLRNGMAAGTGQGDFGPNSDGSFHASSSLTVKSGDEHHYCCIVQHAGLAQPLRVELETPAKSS
T1 chain 2: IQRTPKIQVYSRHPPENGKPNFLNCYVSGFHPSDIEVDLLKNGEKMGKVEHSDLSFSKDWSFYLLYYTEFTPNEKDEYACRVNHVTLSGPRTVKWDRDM
Nature of the assay: SPR, pH 6.0.

In another assay the target is human FcRn (human, UniProt P55899). Nature of the assay: SPR, pH 6.0.
Assay [1] addresses human TfR ECD (human). Nature of the assay: SPR.
The target of assay [2] is human TfR ECD (human). Nature of the assay: SPR. This is another data set of the same source.
In assay [3] the target is T2, cyno TfR ECD (cynomolgus).
T2 chain: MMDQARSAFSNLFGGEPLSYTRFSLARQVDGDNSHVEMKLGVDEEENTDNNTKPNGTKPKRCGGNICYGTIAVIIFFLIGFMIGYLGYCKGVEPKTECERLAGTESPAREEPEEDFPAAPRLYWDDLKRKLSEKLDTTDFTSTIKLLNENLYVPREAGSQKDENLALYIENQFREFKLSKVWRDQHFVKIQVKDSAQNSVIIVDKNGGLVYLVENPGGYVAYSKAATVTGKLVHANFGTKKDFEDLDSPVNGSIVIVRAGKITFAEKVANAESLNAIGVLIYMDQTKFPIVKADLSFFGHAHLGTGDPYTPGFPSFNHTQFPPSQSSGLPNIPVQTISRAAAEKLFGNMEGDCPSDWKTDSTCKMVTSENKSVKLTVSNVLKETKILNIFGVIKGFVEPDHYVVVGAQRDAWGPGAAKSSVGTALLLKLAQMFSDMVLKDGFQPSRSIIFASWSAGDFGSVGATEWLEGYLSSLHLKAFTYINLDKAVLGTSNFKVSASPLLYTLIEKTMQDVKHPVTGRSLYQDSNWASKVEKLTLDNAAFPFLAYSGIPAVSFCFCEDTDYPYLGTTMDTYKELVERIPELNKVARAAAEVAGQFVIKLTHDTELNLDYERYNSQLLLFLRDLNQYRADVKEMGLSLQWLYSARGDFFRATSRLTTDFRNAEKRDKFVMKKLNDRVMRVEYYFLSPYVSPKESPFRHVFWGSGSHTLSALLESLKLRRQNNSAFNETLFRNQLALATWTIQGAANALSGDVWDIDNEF
Description: SPR.

Assay [4] addresses T2, cyno TfR ECD. Description: SPR.
Assay [5] deals with human TfR ECD (human). Description: SPR. This is another data set of the same source.
Assay [6] deals with human TfR ECD (human). Nature of the assay: SPR. The source holds these as a separate data set.
Assay [7] has as its target T2, cyno TfR ECD. Description: SPR.
Assay [8] has as its target human TfR ECD (human). Description: SPR. The source holds these as a separate data set.
For assay [9], the target named is T2, cyno TfR ECD. Nature of the assay: SPR.

Where a chain is given by its changes, count along the chain named. Names may count otherwise. “And” between values parts separate entries of the source, which are not always exact repeats. Equal values may be shown once. Read-outs that look alike come from different tables or passages of the source.

B1: Anti-TfR2/6266.hIgG1.LALAPG (antibody)
chain 1: EVQLVQSGAEVKKPGASVKVSCKASGYTFTSYWMHWVRQAPGQRLEWIGEINPTNGRTNYIEKFKSRATLTVDKSASTAYMELSSLRSEDTAVYYCARGTRAYHYWGQGTMVTVSSASTKGPSVFPLAPSSKSTSGGTAALGCLVKDYFPEPVTVSWNSGALTSGVHTFPAVLQSSGLYSLSSVVTVPSSSLGTQTYICNVNHKPSNTKVDKKVEPKSCDKTHTCPPCPAPEAAGGPSVFLFPPKPKDTLMISRTPEVTCVVVDVSHEDPEVKFNWYVDGVEVHNAKTKPREEQYNSTYRVVSVLTVLHQDWLNGKEYKCKVSNKALGAPIEKTISKAKGQPREPQVYTLPPSREEMTKNQVSLSCAVKGFYPSDIAVEWESNGQPENNYKTTPPVLDSDGSFFLVSKLTVDKSRWQQGNVFSCSVMHEALHNHYTQKSLSLSPGK
chain 2: DIQMTQSPSSLSASVGDRVTITCRASDNLYSNLAWYQQKPGKSPKLLVYDATNLADGVPSRFSGSGSGTDYTLTISSLQPEDFATYYCQHFAGTPLTFGQGTKVEIKRTVAAPSVFIFPPSDEQLKSGTASVVCLLNNFYPREAKVQWKVDNALQSGNSQESVTEQDSKDSTYSLSSTLTLSKADYEKHKVYACEVTHQGLSSPVTKSFNRGEC
chain 3: not shown
chain 4: not shown
B1: the figures for the Kd in the assay with cyno FcRn and with human FcRn were 1200 nM and 1100 nM, respectively.

B2: Hu15G11.HC52A Fab (antiTfR.52A.Fab) (antibody, V domains shown)
VH: EVQLVQSGAEVKKPGASVKVSCKASGYTFTSYWMHWVRQAPGQRLEWIGEIAPTNGRTNYIEKFKSRATLTVDKSASTAYMELSSLRSEDTAVYYCARGTRAYHYWGQGTMVTVSS
VL: DIQMTQSPSSLSASVGDRVTITCRASDNLYSNLAWYQQKPGKSPKLLVYDATNLADGVPSRFSGSGSGTDYTLTISSLQPEDFATYYCQHFWGTPLTFGQGTKVEIK
On to B2, for which the Kd with human TfR ECD [1] was 34.6 nM and 44.4 nM; with human TfR ECD [2], 55 nM; with cyno TfR ECD [3], 117 nM.

B3: Hu15G11.v5 Fab (antibody, V domains shown)
VH: B2 VH with A52N
VL: B2 VL
B3: the Kd in the assay with human TfR ECD [1] was 7.03 nM; with cyno TfR ECD [4], 15.6 nM; with human TfR ECD [5] it was 7.03 nM; with human TfR ECD [6], 4.7 nM and 8.91 nM; in the assay with cyno TfR ECD [7], 28.2 nM; with cyno TfR ECD [3], 28.2 nM.

B4: Anti-TfR1/6266.hIgG1.N297G, TfR arm (antibody, V domains shown)
VH: B2 VH with A52N
VL: B2 VL
B4: the values for the Kd in the assay with human TfR ECD [8] and in the assay with cyno TfR ECD [9] were 9 nM and 23.7 nM, respectively.

B5: Anti-TfR2/6266.hIgG1.LALAPG.YTE, TfR arm (antibody, V domains shown)
VH: B2 VH with A52N
VL: DIQMTQSPSSLSASVGDRVTITCRASDNLYSNLAWYQQKPGKSPKLLVYDATNLADGVPSRFSGSGSGTDYTLTISSLQPEDFATYYCQHFAGTPLTFGQGTKVEIKR
As to B5, the Kd with cyno TfR ECD [9] came out at 1650 nM.

B6: antiTfR.52A.M108L.Fab (antibody, V domains shown)
VH: B2 VH with M111L
VL: B2 VL
On to B6, for which binding with human TfR ECD [2] was characterised by a dissociation constant (Kd) of 72.2 nM.

B7: Hu15G11.W92A bispecific, TfR arm (antibody, V domains shown)
VH: B2 VH with A52N
VL: B2 VL with W92A
As to B7, the Kd with human TfR ECD [5] is 295 nM; with cyno TfR ECD [7], 622 nM.
